pKd: −log10 of the molar value. One block for each substance: values may come before it.
Experiments:
[1] = system: T1, MBP-TAp63γ (Mus musculus), O88898-5; assay: fluorescence anisotropy; details: 10 mM potassium phosphate pH 7.6, 200 mM NaCl, room temperature, 30 min, 15 nM p21 DNA (300 nM for controls), protein 0.1-15 µM monomer
T1 sequence: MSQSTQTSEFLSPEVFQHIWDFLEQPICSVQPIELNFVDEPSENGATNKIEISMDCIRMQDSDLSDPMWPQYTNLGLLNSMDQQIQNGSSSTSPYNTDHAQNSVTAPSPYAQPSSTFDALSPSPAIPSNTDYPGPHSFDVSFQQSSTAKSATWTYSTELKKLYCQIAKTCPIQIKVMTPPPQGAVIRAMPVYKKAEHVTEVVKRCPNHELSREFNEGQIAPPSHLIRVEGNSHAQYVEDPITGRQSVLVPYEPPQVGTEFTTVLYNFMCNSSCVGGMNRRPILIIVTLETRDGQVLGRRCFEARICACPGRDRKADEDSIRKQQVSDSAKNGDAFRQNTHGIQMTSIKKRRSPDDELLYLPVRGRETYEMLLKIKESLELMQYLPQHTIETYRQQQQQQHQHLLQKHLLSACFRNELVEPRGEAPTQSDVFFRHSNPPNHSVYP

[2] = biological target: T2, MBP-TAp63αFTL (Mus musculus) (UniProt O88898); assay: fluorescence anisotropy; details: 10 mM potassium phosphate pH 7.6, 200 mM NaCl, room temperature, 30 min, 15 nM p21 DNA (300 nM for controls), protein 0.1-15 µM monomer
T2 sequence: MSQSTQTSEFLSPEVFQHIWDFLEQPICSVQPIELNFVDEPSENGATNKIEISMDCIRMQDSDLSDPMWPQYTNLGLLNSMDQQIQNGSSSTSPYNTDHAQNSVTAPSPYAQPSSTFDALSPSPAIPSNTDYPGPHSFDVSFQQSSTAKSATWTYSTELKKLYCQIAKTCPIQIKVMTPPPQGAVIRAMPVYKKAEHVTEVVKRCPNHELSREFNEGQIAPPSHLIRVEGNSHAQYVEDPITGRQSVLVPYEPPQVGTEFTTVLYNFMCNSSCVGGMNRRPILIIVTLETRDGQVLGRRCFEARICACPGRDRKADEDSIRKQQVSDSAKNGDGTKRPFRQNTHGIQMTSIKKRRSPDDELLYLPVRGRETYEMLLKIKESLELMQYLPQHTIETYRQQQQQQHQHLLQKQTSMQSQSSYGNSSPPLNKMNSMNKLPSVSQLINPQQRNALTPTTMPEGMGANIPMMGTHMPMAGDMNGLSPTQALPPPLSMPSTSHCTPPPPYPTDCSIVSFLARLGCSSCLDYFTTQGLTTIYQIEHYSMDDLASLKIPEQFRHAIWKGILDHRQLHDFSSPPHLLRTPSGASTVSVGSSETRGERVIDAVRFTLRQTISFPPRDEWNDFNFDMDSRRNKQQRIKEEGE

[3] = biological target: His-MBP-ΔNp63α^PPR (mouse); assay: SEC; purified proteins from E. coli, 3–15 μM, Superose 6 10/300 GL, 16°C, 10 mM potassium phosphate pH 7.6, 200 mM NaCl; column calibrated with globular standards
[4] = biological target: MBP-TAp63α (mouse); assay: AUC; sedimentation velocity, 45,000 rpm, 4 μM protein, 4°C, 20 mM potassium phosphate pH 7.5, 200 mM NaCl, 2 mM dithiothreitol
[5] = biological target: MBP-TAp63α (mouse); assay: SEC; purified proteins from E. coli, 3–15 μM, Superose 6 10/300 GL, 16°C, 10 mM potassium phosphate pH 7.6, 200 mM NaCl; column calibrated with globular standards
[6] = biological target: MBP-TAp63α (mouse); assay: native MS; LILBID-MS, ~10 μM protein dialyzed against 10 mM potassium phosphate pH 7.6 without NaCl
[7] = biological target: MBP-TAp63α (mouse); assay: AUC; sedimentation equilibrium, 7000 and 9000 rpm, 1–8 μM monomer, 4°C, 20 mM potassium phosphate pH 7.5, 200 mM NaCl, 2 mM dithiothreitol
[8] = biological target: MBP-TAp63α (mouse); assay: SEC-MALS; Superdex 200 5/150 GL, room temperature, 80 μl of purified protein of ~1 mg/ml, 0.3 ml/min
[9] = biological target: TAp63α (murine, N-terminal His6-tag, from pBH4) (mouse); assay: SEC; purified proteins from E. coli, 3–15 μM, Superose 6 10/300 GL, 16°C, 10 mM potassium phosphate pH 7.6, 200 mM NaCl; column calibrated with globular standards
[10] = biological target: TAp63α (murine, N-terminal His6-tag, from pBH4) (mouse); assay: SEC-MALS; Superdex 200 5/150 GL, room temperature, 80 μl of purified protein of ~1 mg/ml, 0.3 ml/min
[11] = biological target: p63 (Homo sapiens) (UniProt Q9H3D4); details: cited from earlier work
[12] = second binding site of two-site fit, suggested unspecific
[13] = two-site fit, first site, monomer concentration

p63, sequence (Q9H3D4 whole entry): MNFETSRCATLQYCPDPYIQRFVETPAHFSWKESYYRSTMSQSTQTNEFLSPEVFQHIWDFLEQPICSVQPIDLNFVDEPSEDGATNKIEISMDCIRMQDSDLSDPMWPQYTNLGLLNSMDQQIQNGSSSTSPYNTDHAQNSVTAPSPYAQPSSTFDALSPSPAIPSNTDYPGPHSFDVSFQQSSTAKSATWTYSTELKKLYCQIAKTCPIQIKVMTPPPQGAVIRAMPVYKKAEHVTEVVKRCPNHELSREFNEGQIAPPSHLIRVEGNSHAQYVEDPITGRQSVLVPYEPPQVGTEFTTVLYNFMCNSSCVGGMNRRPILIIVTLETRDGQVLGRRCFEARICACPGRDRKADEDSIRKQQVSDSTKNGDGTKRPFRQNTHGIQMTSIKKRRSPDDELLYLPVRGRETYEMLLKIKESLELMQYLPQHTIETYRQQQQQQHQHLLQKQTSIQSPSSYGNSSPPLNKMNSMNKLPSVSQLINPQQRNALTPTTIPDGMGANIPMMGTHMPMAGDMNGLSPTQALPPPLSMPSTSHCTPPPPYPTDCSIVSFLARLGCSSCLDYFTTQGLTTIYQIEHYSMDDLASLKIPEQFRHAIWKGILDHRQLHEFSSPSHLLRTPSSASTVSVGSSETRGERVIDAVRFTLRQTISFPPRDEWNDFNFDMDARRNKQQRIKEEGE

Substance: GGCAGGAACATGTCCCAACATGTTGAGCCG (double strand) [p21 promoter response element]
pKd [1, 12]: 4.68
pKd [1, 13]: 6.47
pKd [2, 12]: 4.33
pKd [2, 13]: 6.42

stoichiometry N [3]: 4
Substance: His-MBP-ΔNp63α^PPR (natural protein)

stoichiometry N [4]: 2
stoichiometry N [5]: 2
stoichiometry N [6]: 2
stoichiometry N [7]: 2
stoichiometry N [8]: 2
Substance: MBP-TAp63α (natural protein)

stoichiometry N [9]: 2
stoichiometry N [10]: 2
Substance: TAp63α (murine, N-terminal His6-tag, from pBH4) (natural protein)

Substance: p63 (from UniProt Q9H3D4)
pKd [11]: 7.92

From paper PMC3087504
